This note sets out measurements from patent US12497460B2, “Anti-MSR1 antibodies and methods of use thereof” (REGENERON PHARMACEUTICALS, INC., priority 2018, dated 2025).

One may read the Kd as the concentration at which binding is half-saturated. Broadly, the t½ is how long it takes for the measured level to halve.

Assay [1] deals with T1, His9-mMSR1 (mouse MSR1 extracellular domain) (Mus musculus, UniProt P30204).
T1 construct: mouse MSR1 extracellular domain expressed with a N-terminal nonahistidine tag; His9 (nonahistidine) (N); purchased R&D Systems 1797-MS
T1 sequence (P30204 79-458 limits assumed): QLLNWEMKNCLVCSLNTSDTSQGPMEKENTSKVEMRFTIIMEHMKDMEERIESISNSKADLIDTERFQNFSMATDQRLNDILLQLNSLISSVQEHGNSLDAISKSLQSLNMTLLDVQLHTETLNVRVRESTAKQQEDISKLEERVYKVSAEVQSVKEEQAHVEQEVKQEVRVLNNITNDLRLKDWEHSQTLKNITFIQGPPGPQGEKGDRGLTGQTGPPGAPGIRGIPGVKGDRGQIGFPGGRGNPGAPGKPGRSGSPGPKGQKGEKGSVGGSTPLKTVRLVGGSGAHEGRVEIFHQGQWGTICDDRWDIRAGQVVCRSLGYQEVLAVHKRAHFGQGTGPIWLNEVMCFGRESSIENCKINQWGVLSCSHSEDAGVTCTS
The experiment in a line: OCTET bio-layer interferometry binding kinetics of anti-MSR1 mAbs. Particulars: 25° C., antibody-capture format, analyte His9-mMSR1; for kd: * = no dissociation observed, kd manually fixed at 5.00E−05; for t½: dissociative half-life. The procedure:
Binding affinities and kinetic constants of human anti-MSR1 antibodies for different MSR1 reagents were determined using a real time, label-free bio-layer interferometry assay on an OCTET® HTX biosensor platform (Pall FortéBio Corp., Menlo Park, CA). The experiment was performed at 25° C. in 10 mM HEPES, 150 mM NaCl, 3 mM EDTA, 0.05% v/v Surfactant Tween-20, and 1 mg/mL BSA, pH7.4 (HBS-EBT) buffer with the plate shaking at the speed of 1000 rpm. Binding studies were performed on human MSR1 extracellular domain expressed with a N-terminal nonahistidine tag (His9-hMSR1; R&D Systems, Cat #2708-MS), monkey MSR1 extracellular domain expressed with a N-terminal myc-myc-hexahistidine tag (HMM-mfMSR1; SEQ ID NO: 418), and mouse MSR1 extracellular domain expressed with a N-terminal nonahistidine tag (His9-mMSR1; R&D Systems, Cat #1797-MS). The anti-MSR1 monoclonal antibodies were captured by dipping either anti-human Fc (AHC) or anti-mouse Fc (AMC) Octet biosensors in wells containing 5 μg/mL or 10 μg/mL of anti-MSR1 monoclonal antibody for 45-90 seconds. The AHC captured anti-MSR1 monoclonal antibodies were then dipped in wells containing 50 nM of His9-mMSR1, while the AMC captured anti-MSR1 monoclonal antibodies were dipped in wells containing different concentrations of His9-hMSR1 or HMM-mfMSR1 (100 nM, 25 nM) or 100 nM His9-mMSR1. The binding of different MSR1 reagents to the captured anti-MSR1 monoclonal antibody was measured for 4 minutes and the dissociation of monoclonal antibody bound MSR1 reagent was monitored for 8-10 minutes in HBS-EBT buffer.
The association rate (ka) and dissociation rate (kd) were determined by fitting the real-time binding sensorgrams to a 1:1 binding model with mass transport limitation using Scrubber 2.0c curve-fitting software. Binding dissociation equilibrium constant (KD) and dissociative half-life (t½) were calculated from the kinetic rates as: […]
Binding kinetics parameters for His9-hMSR1, HMM-mfMSR1 or His9-mMSR1 binding to different anti-MSR1 monoclonal antibodies of the invention at 25° C. are shown in Tables 8 and 9.
For orientation: BLI is a label-free optical method that tracks binding on a fibre tip over time.

Assay [2] addresses T2, Ox-LDL binding to His9-hMSR1 (Homo sapiens, UniProt P21757).
T2 construct: human MSR1 extracellular domain expressed with a N-terminal nonahistidine tag; His9 (nonahistidine) (N); purchased R&D Systems 2708-MS
T2 sequence (P21757 77-451 limits assumed): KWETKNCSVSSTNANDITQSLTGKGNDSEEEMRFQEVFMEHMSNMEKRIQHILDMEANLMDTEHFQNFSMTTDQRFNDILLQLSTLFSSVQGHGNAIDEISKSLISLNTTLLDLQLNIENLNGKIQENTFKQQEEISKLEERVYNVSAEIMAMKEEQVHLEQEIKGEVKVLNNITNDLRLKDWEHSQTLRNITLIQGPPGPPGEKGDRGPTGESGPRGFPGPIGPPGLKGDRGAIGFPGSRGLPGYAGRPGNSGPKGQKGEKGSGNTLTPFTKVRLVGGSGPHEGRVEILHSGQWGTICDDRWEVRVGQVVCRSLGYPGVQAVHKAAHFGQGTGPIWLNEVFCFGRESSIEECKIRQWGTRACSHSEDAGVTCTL
Nature of the assay: Competition sandwich ELISA, blocking of Ox-LDL binding. Particulars: antibody 500 nM, Ox-LDL 10 nM. The method, then:
The ability of anti-MSR1 antibodies disclosed herein to block the binding of various ligands to human MSR1 was measured using three competition sandwich ELISA assays. The ligands used in the assays were: (1) acetylated LDL (Ac-LDL), (2) oxidized LDL (Ox-LDL), and (3) advanced glycation end-products of bovine serum albumin (AGE-BSA).
Anti-MSR1 antibodies or isotype control antibodies were serially diluted as appropriate for each tested ligand and added in duplicate for each serial dilution set to microtiter plates coated with His9-hMSR1. Buffer alone was also added to wells on each coat. […] This assay was conducted in four different assay runs.
Data analysis was performed using a sigmoidal dose-response model within Prism™ software (GraphPad). Percent blockade at maximum concentration of the antibody tested in each assay was calculated as an indicator of the ability of the antibodies to block the binding of Ac-LDL, Ox-LDL or biot-AGE-BSA to His9-hMSR1 on the plate relative to the baseline of the assay. In the calculation, binding signal of the same concentrations of Ac-LDL, Ox-LDL, or biot-AGE-BSA used for the assays in the absence of antibody was referenced as 100% binding or 0% blocking, while the baseline of the assay, defined as binding signal of the sample of buffer without MSR1 ligands or antibody, was referenced as 0% binding or 100% blocking. The maximum percent blockade at the highest concentration of antibody tested in each assay are reported for all antibodies.
On the technique in general: An ELISA detects its analyte on a solid surface through an enzyme-linked reagent.

B1: H1H21227N-N297Q: "modified versions of 21227N (H1H21227N-N297Q and H1H21227N-N297D)"; anti-MSR1 antibody "with a N297Q single point mutation" (antibody, V domains shown)
VH: QVQLVQSGAEVKKPGASVKVSCKVSGYTLTELSIHWVRQVPGKGLEWMGGFDPEEGETIFAQEFRDRVTLTEDTSPDTAYMELSSLKSEDAAVYYCTTPRYCNNGICYDYWGQGTLVTVSS
VL: DIQMTQSPSSLSASVGDRVTITCRASQSISNYLNWYQQKPGKAPKLLIYTASSLQSGVPSRFSGSGSGTDFTLTISSLQTEDFATYYCQQSYSNFPITFGQGTRLEIKR
For the molecule B1, in assay [1], the Kd was found to be 1.89 nM, the ka was found to be 374000 M⁻¹ s⁻¹, the kd came to 0.000708 s⁻¹ and the t½ turned out to be 16 min. Moreover, the “anti-MSR1 antibody blocking of Ox-LDL binding to His9-hMSR1 % Blocking” value in assay [2] is 97%.

B2: H1H21231N: "anti-MSR1 antibodies ... (21227N, 21231N, 21234N) were produced with the original human Fcγ portion"; "H1H" = human IgG1 Fc (antibody, V domains shown)
VH: EVQLVESGGGLVQPGGSLRLSCAASGFTFSDHYMDWVRQAPGKGLEWVGRTRNKANSHTTEYTASVTGRFTISRDDSRNSLYLQMNSLKTEDTAVYYCVRAGIIGTLFDYWGQGTLVTVSS
VL: DIQMTQFPSSLSASVGDRVTITCRASQSISSFLNWFQQKPGKAPKFLIYAASSLQSGVPSRFSGSGSGTDFTLTISSLQPEDFATYYCQQSYSSPPITFGQGTRLEIKR
modifications: human IgG1 Fc
notes: "anti-MSR1 antibodies ; (21227N, 21231N, 21234N) were produced with the original human Fcγ portion"; "H1H" = human IgG1 Fc
As to B2, the “anti-MSR1 antibody blocking of Ox-LDL binding to His9-hMSR1 % Blocking” value in assay [2] worked out at 22%.

B3: H1H21227N-N297D: "The 21227N antibody was also produced as a third version with a N297D mutation" (antibody, V domains shown)
VH: QVQLVQSGAEVKKPGASVKVSCKVSGYTLTELSIHWVRQVPGKGLEWMGGFDPEEGETIFAQEFRDRVTLTEDTSPDTAYMELSSLKSEDAAVYYCTTPRYCNNGICYDYWGQGTLVTVSS
VL: DIQMTQSPSSLSASVGDRVTITCRASQSISNYLNWYQQKPGKAPKLLIYTASSLQSGVPSRFSGSGSGTDFTLTISSLQTEDFATYYCQQSYSNFPITFGQGTRLEIKR
Turning to B3, in assay [1], binding was put at a Kd of 1.71 nM, the ka came out at 461000 M⁻¹ s⁻¹, the kd amounted to 0.000786 s⁻¹ and the t½ came out at 15 min. In addition, the “anti-MSR1 antibody blocking of Ox-LDL binding to His9-hMSR1 % Blocking” value in assay [2] amounted to 99%.

B4: H1H21231N-N297Q: modified version of "21231N (H1H21231N-N297Q) anti-MSR1 antibodies" with "a N297Q single point mutation" (antibody, V domains shown)
VH: EVQLVESGGGLVQPGGSLRLSCAASGFTFSDHYMDWVRQAPGKGLEWVGRTRNKANSHTTEYTASVTGRFTISRDDSRNSLYLQMNSLKTEDTAVYYCVRAGIIGTLFDYWGQGTLVTVSS
VL: DIQMTQFPSSLSASVGDRVTITCRASQSISSFLNWFQQKPGKAPKFLIYAASSLQSGVPSRFSGSGSGTDFTLTISSLQPEDFATYYCQQSYSSPPITFGQGTRLEIKR
In the case of B4, the “anti-MSR1 antibody blocking of Ox-LDL binding to His9-hMSR1 % Blocking” value in assay [2] came to 26%.

B5: H1H21227N: "anti-MSR1 antibodies ... (21227N, 21231N, 21234N) were produced with the original human Fcγ portion"; "H1H" = human IgG1 Fc (antibody, V domains shown)
VH: QVQLVQSGAEVKKPGASVKVSCKVSGYTLTELSIHWVRQVPGKGLEWMGGFDPEEGETIFAQEFRDRVTLTEDTSPDTAYMELSSLKSEDAAVYYCTTPRYCNNGICYDYWGQGTLVTVSS
VL: DIQMTQSPSSLSASVGDRVTITCRASQSISNYLNWYQQKPGKAPKLLIYTASSLQSGVPSRFSGSGSGTDFTLTISSLQTEDFATYYCQQSYSNFPITFGQGTRLEIKR
modifications: human IgG1 Fc
notes: as for B2
For B5, in assay [1], the Kd is 1.97 nM, the ka came out at 415000 M⁻¹ s⁻¹, the kd came out at 0.000816 s⁻¹ and the t½ is 14 min. The “anti-MSR1 antibody blocking of Ox-LDL binding to His9-hMSR1 % Blocking” value in assay [2] is 100%.
